Publication PMC5938747

System: Nc1ccn([C@@H]2O[C@H](COP(=O)(O)OP(=O)(O)O)[C@@H](O)[C@H]2O)c(=O)n1
Assay: purified protein
Settings: 10 mM ATP, MgCl2 4 mM excess, pH 8.0, 25 °C

## Cj1415 (cytidine diphosphoramidate kinase, CDK) (Campylobacter jejuni subsp. jejuni NCTC 11168 = ATCC 700819)
  Km: 4.2 ± 0.7 mM
  kcat: 0.64 ± 0.04 s⁻¹
